Assay results published in US20250026792A1, “SELF-ASSEMBLING PEPTIDES WITH HYALURONIC ACID BINDING DOMAINS AND METHODS OF USE THEREOF” (Northwestern University, priority 2022, published 2025).
Entries after “also recorded” stand apart in the source; their conditions may differ. The star is where a group is joined. Biotin = O=C1N[C@H]2[C@H](CS[C@H]2CCCCC(=O)*)N1

T1: elastin (Bos taurus, UniProt P04985)
T1 construct: purchased Sigma-Aldrich
T1 sequence (P04985 27-747): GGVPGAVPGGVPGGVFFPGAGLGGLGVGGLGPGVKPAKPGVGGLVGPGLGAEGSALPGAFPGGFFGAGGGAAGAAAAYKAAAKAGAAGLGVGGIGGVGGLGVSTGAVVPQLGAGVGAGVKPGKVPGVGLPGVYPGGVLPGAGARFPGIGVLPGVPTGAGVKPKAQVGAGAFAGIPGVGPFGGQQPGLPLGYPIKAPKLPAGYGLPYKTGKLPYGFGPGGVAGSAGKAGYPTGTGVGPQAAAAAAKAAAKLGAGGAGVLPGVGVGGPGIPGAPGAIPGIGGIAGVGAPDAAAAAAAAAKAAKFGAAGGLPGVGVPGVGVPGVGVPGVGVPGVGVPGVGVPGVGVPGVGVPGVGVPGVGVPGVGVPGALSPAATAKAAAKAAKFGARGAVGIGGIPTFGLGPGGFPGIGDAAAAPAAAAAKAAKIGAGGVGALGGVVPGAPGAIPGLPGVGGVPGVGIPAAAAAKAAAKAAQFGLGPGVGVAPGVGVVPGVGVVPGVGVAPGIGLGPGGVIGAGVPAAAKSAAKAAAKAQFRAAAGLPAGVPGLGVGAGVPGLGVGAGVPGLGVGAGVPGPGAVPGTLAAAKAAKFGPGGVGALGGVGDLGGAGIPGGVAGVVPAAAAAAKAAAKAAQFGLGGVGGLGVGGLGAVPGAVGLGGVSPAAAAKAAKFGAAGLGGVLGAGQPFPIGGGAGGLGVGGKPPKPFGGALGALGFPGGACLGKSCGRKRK

T2: elastin (bovine) (bovine, UniProt P04985 27-747, limits assumed)
T2 construct: Coated and dried on plates at 10 ug/cm2
T2 sequence (looked up): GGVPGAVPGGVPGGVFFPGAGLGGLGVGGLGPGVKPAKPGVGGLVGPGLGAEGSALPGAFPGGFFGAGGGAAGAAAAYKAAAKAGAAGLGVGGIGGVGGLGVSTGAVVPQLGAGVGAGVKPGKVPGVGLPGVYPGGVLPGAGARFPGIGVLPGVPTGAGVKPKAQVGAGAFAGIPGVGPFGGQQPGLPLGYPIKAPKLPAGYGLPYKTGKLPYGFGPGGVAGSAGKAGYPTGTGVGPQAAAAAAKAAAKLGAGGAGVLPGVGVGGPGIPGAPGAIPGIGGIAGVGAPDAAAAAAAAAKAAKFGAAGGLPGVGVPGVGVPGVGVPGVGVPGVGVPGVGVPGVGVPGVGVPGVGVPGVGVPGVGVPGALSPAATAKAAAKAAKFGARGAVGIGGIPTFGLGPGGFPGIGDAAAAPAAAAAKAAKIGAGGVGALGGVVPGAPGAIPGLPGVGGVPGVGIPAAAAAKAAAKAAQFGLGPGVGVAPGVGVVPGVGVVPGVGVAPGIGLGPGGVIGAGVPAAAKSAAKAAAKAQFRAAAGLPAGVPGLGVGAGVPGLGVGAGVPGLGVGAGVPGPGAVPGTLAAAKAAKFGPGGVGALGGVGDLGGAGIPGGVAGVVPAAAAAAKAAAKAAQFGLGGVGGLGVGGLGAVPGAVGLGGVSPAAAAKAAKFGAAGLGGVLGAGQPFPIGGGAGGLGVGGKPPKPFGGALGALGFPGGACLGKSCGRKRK


Legend:
[1] = Concentration-dependent peptide binding to hyaluronic acid coating (biotin-streptavidin fluorescence)
Procedure: (§1) Peptides were incubated 24 hours at 37° C. Coatings (10 μg/cm^2) were previously dried overnight in milli-Q water. Overall significance was assessed using analysis of variance, with Tukey's multiple comparison post-hoc analysis between 1-scrm and experimental groups where n=4.
N-termini biotinylated peptides were added to coated plates at 0, 1, 2.5, 5 and 10 mg/ml overnight at 37° C. in phosphate buffered saline (PBS), pH 7.4, after which the plates were washed three times with PBS.

[2] = ECM specificity binding test, hyaluronic acid coating; conditions: 5.0 mg/ml peptide, FIG. 4
Procedure: as §1, with “C. on collagens I-IV, elastin, hyaluronic acid, and Geltrex.” for “C.”, “pig/cm^2)” for “μg/cm^2)”, “ECM” for “1-scrm and experimental”
(§2) Hyaluronic acid, collagens I, II, III, and IV, elastin, and Geltrex were coated onto 96-well black plates (medium binding affinity) at 10 μg/cm^2 and were dried in milli-Q water at room temperature. N-termini biotinylated peptides were added to coated plates at 0, 1, 2.5, 5 and 10 mg/ml overnight at 37° C. in phosphate buffered saline (PBS), pH 7.4, after which the plates were washed three times with PBS. Fluorescent streptavidin-488 (4 μg/mL) was added to each well and incubated at 37° C. temperature for 24 hours, then thoroughly washed with PBS. The plates were read with a fluorescence microplate reader for fluorescence intensity (Ex 490 nm, Em 525 nm). All data were normalized to the background fluorescence intensity of Streptavidin-488.

elastin = target: T1, elastin; experiment: ECM specificity binding test, elastin coating; set-up: species or system bovine; conditions: 5.0 mg/ml peptide, FIG. 4
Procedure: as §1, with “C. on collagens I-IV, elastin, hyaluronic acid, and Geltrex.” for “C.”, “pig/cm^2)” for “μg/cm^2)”, “ECM” for “1-scrm and experimental”
Biotinylated peptides were custom synthesized by ABI Scientific, Inc. (Sterling, VA). Uranyl acetate and TEM grids were from Ted Pella, Inc (Redding, CA). Unless specified otherwise, all water used in these experiments was Milli-Q grade. HA (˜1 MDa), collagen types I (rat), II (chicken), III (human), and IV (mouse), elastin (bovine), deuterium oxide (D2O), acetic acid-d4, sodium acetate-d3, 3-(Trimethylsilyl)propionic-2,2,3,3-d6 (DSS-D6) acid sodium salt, and 2,2,2-trifluoroethanol (TFE) and were obtained from Sigma-Aldrich (St. Louis, MO). Streptavidin (Alexa Fluor 488 conjugate) and Geltrex were obtained from Thermo Fisher Scientific Inc. (Waltham, MA). Sodium hyaluronate (5 and 60 KDa) was purchased from Lifecore Biomedical LLC (Chaska, MN). In reference to terminology, N and C termini is used to describe the amino terminal (N) and the carboxyl terminal (C) of the peptide. The biotinylated peptides are used in every experiment.
as §2

[3] = system: extracellular matrix (ECM) components: Collagen type I, II, III and IV, elastin, hyaluronic acid and Geltrex; experiment: ECM specificity binding test, whole panel; conditions: 5.0 mg/ml peptide, FIG. 4
Procedure: as §1, with “C. on collagens I-IV, elastin, hyaluronic acid, and Geltrex.” for “C.”, “pig/cm^2)” for “μg/cm^2)”, “ECM” for “1-scrm and experimental”
as §2

[4] = Circular dichroism (CD) of peptides; format: physicochemical; conditions: 20 mM Sodium Cacodylate; for Ellipticity ratio (222 nm/208 nm) / Ellipticity 208 nm / Ellipticity 222 nm: 1.25 mg/mL; for Ellipticity 208 nm / Ellipticity 222 nm: CD data given as [θ]M×10^−3; for wavelength Minimum of CD profile: 5.0 mg/mL
Procedure: Data is presented in ellipticity ([θ]M×10^−3) as a function of spectral wavelength (λ).
Sodium cacodylate (SC), 20 mM pH 7.4, without and with 20% TFE was used to reduce phosphate related background signal and enhance detected structures. Circular dichroism (CD) data were collected in millidegrees, 0, and converted to molar ellipticity, [θ]M, and are expressed in units of deg×cm^2×dmol^−1. Scan speeds and digital integration times were 500 nm/min and 1 second, respectively. The data on the Y axis of the CD plots is [θ]M×10^−3. […] Consequently, CD signals are reported in the 190-260 nm range.

[5] = Transmission electron microscopy (TEM) of peptide nanostructures; format: physicochemical
Procedure: The sample and stain were filter-dried in between steps. Samples were collected 24 hours at 37° C. after 30 minutes of sonication. All TEM was performed on a Philips FEI Technai Spirit G2 electron microscope. Peptides were incubated in both PBS and SC.

elastin (bovine) = target: T2, elastin (bovine); experiment: plate assay: biotinylated peptide (5.0 mg/ml) on dried ECM coating, streptavidin-488 fluorescence
Procedure: as §1, with “C. on collagens I-IV, elastin, hyaluronic acid, and Geltrex.” for “C.”, “pig/cm²)” for “μg/cm^2)”, “ECM” for “1-scrm and experimental”
as §2, with “N-termini” for “Hyaluronic acid, collagens I, II, III, and IV, elastin, and Geltrex were coated onto 96-well black plates (medium binding affinity) at 10 μg/cm^2 and were dried in milli-Q water at room temperature. N-termini”

Row | Molecule | binding to hyaluronic acid with increasing concentrations of peptide (fluorescence intensity) ([1]; 0-10 mg/ml peptide, PBS pH 7.4, 37° C., HA coating 10 μg/cm^2, FIG. 3) | HA binding, overall assessment ([1]; summary and discussion statements) | binding to hyaluronic acid in specificity testing [2] | binding to elastin (elastin) | specificity of binding to ECMs [3] | Ellipticity ratio (222 nm/208 nm) [4] | Ellipticity 208 nm [4] | Ellipticity 222 nm [4] | wavelength Minimum of CD profile [4] | Ellipticity ratio (222 nm/208 nm) ([4]; 20% TFE) | Ellipticity 208 nm ([4]; 20% TFE) | Ellipticity 222 nm ([4]; 20% TFE) | wavelength Minimum of CD profile ([4]; 20% TFE) | TEM characterization, Phosphate Buffered Saline (i) ([5]; PBS pH 7.4, 0.5% w/v, 30 minutes sonication, 24 hrs at 37° C.) | nanofiber formation in TEM, overall ([5]; both PBS and sodium cacodylate) | binding result (elastin (bovine))
1 | LKTKIKIIVKTKSSAKLRSKLVNSHKI [Peptide 4, 8h-2 variant] | increases dramatically | comparable binding; also recorded: HA specific and robust binders | predominantly | moderately | lower specificity than 17x-3 | 0.54 | −112 | −60.3 | 225 nm | 0.97 | −364 | −353 | 224 nm | fibers that contain two striations (fibrils) | consistent nanofibers; also recorded: predominantly form fibers with striations and furthermore form a mesh network | 
2 | Biotin-KTKATVKIKNKQKSVNALKQKIVLLSK-OH (SMILES CC[C@H](C)[C@H](NC(=O)[C@H](CCCCN)NC(=O)[C@@H](NC(=O)[C@@H](NC(=O)[C@H](C)NC(=O)[C@H](CCCCN)NC(=O)[C@@H](NC(=O)[C@H](CCCCN)NC(=O)CCCC[C@@H]1SC[C@@H]2NC(=O)N[C@@H]21)[C@@H](C)O)[C@@H](C)O)C(C)C)C(=O)N[C@@H](CCCCN)C(=O)N[C@@H](CC(N)=O)C(=O)N[C@@H](CCCCN)C(=O)N[C@@H](CCC(N)=O)C(=O)N[C@@H](CCCCN)C(=O)N[C@@H](CO)C(=O)N[C@H](C(=O)N[C@@H](CC(N)=O)C(=O)N[C@@H](C)C(=O)N[C@@H](CC(C)C)C(=O)N[C@@H](CCCCN)C(=O)N[C@@H](CCC(N)=O)C(=O)N[C@@H](CCCCN)C(=O)N[C@H](C(=O)N[C@H](C(=O)N[C@@H](CC(C)C)C(=O)N[C@@H](CC(C)C)C(=O)N[C@@H](CO)C(=O)N[C@@H](CCCCN)C(=O)O)C(C)C)[C@@H](C)CC)C(C)C, Variant of 17x-3; biotinylated synthetic peptide) [Peptide 7c] |  |  |  |  |  |  |  |  |  |  |  |  |  |  |  | binds
3 | Biotin-TNLRNKYTFLARARANLAVRNKQNIKS-OH (SMILES CC[C@H](C)[C@H](NC(=O)[C@H](CC(N)=O)NC(=O)[C@H](CCC(N)=O)NC(=O)[C@H](CCCCN)NC(=O)[C@H](CC(N)=O)NC(=O)[C@H](CCCNC(=N)N)NC(=O)[C@@H](NC(=O)[C@H](C)NC(=O)[C@H](CC(C)C)NC(=O)[C@H](CC(N)=O)NC(=O)[C@H](C)NC(=O)[C@H](CCCNC(=N)N)NC(=O)[C@H](C)NC(=O)[C@H](CCCNC(=N)N)NC(=O)[C@H](C)NC(=O)[C@H](CC(C)C)NC(=O)[C@H](Cc1ccccc1)NC(=O)[C@@H](NC(=O)[C@H](Cc1ccc(O)cc1)NC(=O)[C@H](CCCCN)NC(=O)[C@H](CC(N)=O)NC(=O)[C@H](CCCNC(=N)N)NC(=O)[C@H](CC(C)C)NC(=O)[C@H](CC(N)=O)NC(=O)[C@@H](NC(=O)CCCC[C@@H]1SC[C@@H]2NC(=O)N[C@@H]21)[C@@H](C)O)[C@@H](C)O)C(C)C)C(=O)N[C@@H](CCCCN)C(=O)N[C@@H](CO)C(=O)O, Variant of BHP3; biotinylated synthetic peptide; also called BPH4) [Peptide BHP4] |  |  |  |  |  |  |  |  |  |  |  |  |  |  |  | binds
